Tested on: EHY18 yeast cells
Assay: in vivo expression of GbLS constructs in yeast strain EHY18 that accumulates GGDP, GC quantitation of products
Assay type: cell-based
Conditions: for diterpene products on expression in EHY18: GC, GC/MS
Protocol: The yeast strain of the copending application employed was EHY18 (Hart, E., 2001) which was further transformed with multiple-copy yeast expression vectors comprising an isolated and purified nucleic acid sequence of GbLS or derivatives thereof, which are described herein under control of the GAL1 inducible promoter. Yeast cells were grown to saturation in 5 mL ScD-Leu-Ura at 30° C. Cells were harvested (1300×g, 2 min, 25° C.) and resuspended in 500 μL sterile Milli-Q H2O (2×). The washed cells were resuspended in 5 mL sterile Milli-Q H2O. An aliquot of the culture (5 μL) was added to a 25 mL Corex tube containing pre-prepared 2× resin and 5 mL ScG-Leu-Ura (4% galactose) and shaken at 30° C. for 6 days. Resin was collected by filtration through a Kontes chromatography column (1.7 cm diameter) and rinsed with dI H2O until eluent was clear. The resin was incubated in 2 mL ethanol for several minutes, eluted, and repeated 2×. The combined eluents were dissolved in approximately 3 mL dI H2O and extracted (3×) with 3 mL hexane. The combined extracts were concentrated under a stream of nitrogen. GC analysis (quantitation extrapolated from 0.2 mg/mL longifolene external standard) indicated the following product profile (obtained from triplicate measurement of three cultures): 0.61±0.20 mg/L levopimaradiene, 0.04±0.01 mg/L abietadiene, 0.15±0.05 mg/L abietatriene, 0.16±0.13 mg/L (+)-copalol, and 1.79±0.90 mg/L geranylgeraniol. GC/MS fragmentation confirmed the identity of each compound.
A large scale culture (1-L) was prepared by growing the yeast cells to saturation in 5 mL ScD-Leu-Ura at 30° C. Cells were harvested (1300×g, 2 min, 25° C.) and resuspended in 500 μL sterile Milli-Q H2O (2×). The washed cells were resuspended in 5 mL sterile Milli-Q H2O. An aliquot of the culture (1 mL) was added to a 2 L flask containing 1-L ScG-Leu-Ura (4% galactose) and 88.27 g resin in 120 mL Milli-Q H2O (pre-prepared). The resin was eluted with ethanol (3×100 mL with 20 min incubation periods), which was subsequently extracted (6×) with hexane. The combined extracts were dried over magnesium sulfate, filtered, and concentrated under reduced pressure. GC analysis (quantitation extrapolated from 0.2 mg/mL longifolene external standard) indicated the following product profile (obtained from triplicate measurement): 0.29±0.04 mg/L levopimaradiene, 0.04±0.02 mg/L abietadiene, 0.13±0.04 mg/L abietatriene, 0.11±0.02 mg/L (+)-copalol, and 0.56±0.03 mg/L geranylgeraniol. GC/MS analyses confirmed the production of the above noted diterpenes, which included hydrocarbons and an alcohol.
Further optimization studies employed the Ser61 construct. Factors influencing diterpene production included induction period and concentration of galactose and resin in the inducing medium.

[1] = EHY18, 6 days, 4% galactose, 0.70 g resin/5 mL culture medium, GC quantitation

B1: Ala^2 (protein, listed as Ginkgo biloba)
chain: MAGVLFANLPCSLQLSPKVPFRQSTNILIPFHKRSSFGFNAQHCVRSHLRLRWNCVGIHASAAETRPDQLPQEERFVSRLNADYHPAVWKDDFIDSLTSPNSHATSKSSVDETINKRIQTLVKEIQCMFQSMGDGETNPSAYDTAWVARIPSIDGSGAPQFPQTLQWILNNQLPDGSWGEECIFLAYDRVLNTLACLLTLKIWNKGDIQVQKGVEFVRKHMEEMKDEADNHRPSGFEVVFPAMLDEAKSLGLDLPYHLPFISQIHQKRQKKLQKIPLNVLHNHQTALLYSLEGLQDVVDWQEITNLQSRDGSFLSSPASTACVFMHTQNKRCLHFLNFVLSKFGDYVPCHYPLDLFERLWAVDTVERLGIDRYFKKEIKESLDYVYRYWDAERGVGWARCNPIPDVDDTAMGLRILRLHGYNVSSDVLENFRDEKGDFFCFAGQTQIGVTDNLNLYRCSQVCFPGEKIMEEAKTFTTNHLQNALAKNNAFDKWAVKKDLPGEVEYAIKYPWHRSMPRLEARSYIEQFGSNDVWLGKTVYKMLYVSNEKYLELAKLDFNMVQALHQKETQHIVSWWRESGFNDLTFTRQRPVEMYFSVAVSMFEPEFAACRIAYAKTSCLAVILDDLYDTHGSLDDLKLFSEAVRRWDISVLDSVRDNQLKVCFLGLYNTVNGFGKDGLKEQGRDVLGYLRKVWEGLLASYTKEAEWSAAKYVPTFNEYVENAKVSIALATVVLNSIFFTGELLPDYILQQVDLRSKFLHLVSLTGRLINDTKTYQAERNRGELVSSVQCYMRENPECTEEEALSHVYGIIDNALKELNWELANPASNAPLCVRRLLFNTARVMQLFYMYRDGFGISDKEMKDHVSRTLFDPVA
diterpene products on expression in EHY18: produced (+)-copalol, levopimaradiene, abietadiene, and abietatriene

B2: Ser^61: Ginkgo biloba levopimaradiene synthase truncated at Ala^60-Ser^61; amino acid sequence SEQ.ID.NO:35 (protein, listed as Ginkgo biloba)
chain: MSAAETRPDQLPQEERFVSRLNADYHPAVWKDDFIDSLTSPNSHATSKSSVDETINKRIQTLVKEIQCMFQSMGDGETNPSAYDTAWVARIPSIDGSGAPQFPQTLQWILNNQLPDGSWGEECIFLAYDRVLNTLACLLTLKIWNKGDIQVQKGVEFVRKHMEEMKDEADNHRPSGFEVVFPAMLDEAKSLGLDLPYHLPFISQIHQKRQKKLQKIPLNVLHNHQTALLYSLEGLQDVVDWQEITNLQSRDGSFLSSPASTACVFMHTQNKRCLHFLNFVLSKFGDYVPCHYPLDLFERLWAVDTVERLGIDRYFKKEIKESLDYVYRYWDAERGVGWARCNPIPDVDDTAMGLRILRLHGYNVSSDVLENFRDEKGDFFCFAGQTQIGVTDNLNLYRCSQVCFPGEKIMEEAKTFTTNHLQNALAKNNAFDKWAVKKDLPGEVEYAIKYPWHRSMPRLEARSYIEQFGSNDVWLGKTVYKMLYVSNEKYLELAKLDFNMVQALHQKETQHIVSWWRESGFNDLTFTRQRPVEMYFSVAVSMFEPEFAACRIAYAKTSCLAVILDDLYDTHGSLDDLKLFSEAVRRWDISVLDSVRDNQLKVCFLGLYNTVNGFGKDGLKEQGRDVLGYLRKVWEGLLASYTKEAEWSAAKYVPTFNEYVENAKVSIALATVVLNSIFFTGELLPDYILQQVDLRSKFLHLVSLTGRLINDTKTYQAERNRGELVSSVQCYMRENPECTEEEALSHVYGIIDNALKELNWELANPASNAPLCVRRLLFNTARVMQLFYMYRDGFGISDKEMKDHVSRTLFDPVA
diterpene production relative to wild-type synthase (EHY18): approximately four
net yield of (+)-copalol [1]: ~0.2 mg/L
net yield of diterpene hydrocarbons [1]: ~0.8 mg/L
diterpene products on expression in EHY18: produced (+)-copalol, levopimaradiene, abietadiene, and abietatriene
